Measured values published in US20020193564A1, “Oligomeric chaperone proteins” (priority 1999, published 2002).
Like-named read-outs stand apart in the source and are kept apart here.

Experiments:
E. coli SV2 groEL44 = experiment: In vivo complementation of ts groEL44 at 43° C.; assay type: cell-based; settings: for Relative colony forming ability, SV2 groEL44: plasmids pJC, relative to growth at 30° C.
Experimental: (§1) In vivo Complementation Experiments.
(§2) Complementation experiments were performed by transforming electro-competent SV2 or SV6 cells with the pJC series of expression vectors and plating an aliquot of the transformation reactions directly at 43° C. The percentage of viable cells relative to the growth at 30° C. was determined. A representative number of clones which grew at 43° C. were incubated in absence of any selective markers at permissive temperature. After prolonged growth the loss of the pJC plasmids and the ts phenotype were verified. Each experiment was performed in duplicate. Plasmids carrying no groE genes or encoding the GroE proteins were used as negative or positive controls, respectively.

E. coli SV6 groEL673 = experiment: In vivo complementation of ts groEL673 at 43° C.; assay type: cell-based; settings: for Relative colony forming ability, SV6 groEL673: plasmids pJC, relative to growth at 30° C.
Experimental: as §1, §2

bacteriophage λ = experiment: Growth of bacteriophage λ in transformed groEL strains; assay type: cell-based, bacteriophage λ (b2cI) in E. coli; parameters: key to Growth of bacteriophage λ, SV1 (groEL^+) / Growth of bacteriophage λ, SV2 groEL44: +++: normal plaque-forming ability relative to wild-type groEL^+ strain, in terms of both number and size; ++: 5-fold fewer plaques relative to wild-type groEL^+ strain, or both; 10-fold fewer plaques, or plaque size reduced relative to wild-type groEL^+ strain, or both; +/−: 10^2-fold fewer plaques and plaque size reduced relative to wild-type groEL^+ strain; no visible plaques (<10^−4); settings: for Effect of over-expression on λ growth / plaque counts: SV1 (groE^+); for Growth of bacteriophage λ, SV1 (groEL^+) / Growth of bacteriophage λ, SV2 groEL44 / Growth of bacteriophage λ, SV3 GroEL59 / Growth of bacteriophage λ, SV6 groEL673: 30° C.
Source text: (§3) The E. Coli strains used in this study were: C41(DE3), a mutant of BL21(DE3) capable of expressing toxic genes (Miroux, B. & Walker, J. E. (1996) J. Mol. Biol. 260, 289-298); SV2 (B178groEL44), SV3 (B178groEL59) and SV6 (B178groEL673): isogenic strains carrying temperature-sensitive alleles of groEL; SV1(=B178) (Georgopoulos, C., Hendrix, R. W., Casjens, S. R. & Kaiser, A. D. (1973) J. Mol. Biol. 76, 45-60), A190 (ΔgroEL::kan^R) [pBAD-EL] (Ivic, A., Olden, D., Wallington, E. J. & Lund, P. A. (1997) Gene 194, 1-8), and TG1 (Gibson, T. J. (1984) Ph.D. thesis, University of Cambridge, U.K). Bacteriophage λb2cI (Zeilstra-Ryalls, J., Fayet, O., Baird, L. & Georgopoulos, C. (1993) J. Bacteriol. 175, 1134-1143) was used according to standard methods (Arber, W., Enquist, L., Hohn, B., Murray, N. E. & Murray, K. (1983) in Lambda II., ed. R. W. Hendrix, J. W. r., F. W. Stahl and R. A. Weisberg (Cold Spring Harbor Laboratory, Cold Spring Harbor, N.Y.), pp. 433-466); plaque formation was assayed at 30° C. T4D0, a derivative of bacteriophage T4 (Zeilstra-Ryalls, J., Fayet, O., Baird, L. & Georgopoulos, C. (1993) J. Bacteriol. 175, 1134-1143), was used according to standard methods (Karam, J. D. (1994) Molecular biology of bacteriophage T4. (American Society for Microbiology, Washington, D.C.)); plaque formation was assayed at 37° C.

[1] = tested on: mutant Huntingdon exon 1-expressing PC12 and SH-SY5Y cells; experiment: Inclusion formation and cell death, mutant Huntingdon exon 1; assay type: cell-based; settings: overexpression
Source text: These phenomena have been studied by transiently transfecting part of Huntingdon exon 1 in COS-7, PC12, and SH-SY5Y cells. Inclusion formation was not seen with constructs expressing 23 glutamines but was repeat length and time dependent for mutant constructs with 43-74 repeats. HSP70, HSP40, the 20S proteasome and ubiquitin colocalized with inclusions. […] Thus, inclusion formation may be enhanced in polyglutamine diseases, if the pathological process results in proteasome inhibition or a heat-shock response. […] To our knowledge, this is the first report of an HSP increasing aggregation of an abnormally folded protein in mammalian cells and expands the current understanding of the roles of HDJ-2yHSDJ in protein folding (See Wyttenbach, A. et al. (2000) Proc. Natl. Acad. Sci. USA 97, 2899-2903).
We have tested MC72 in the same system.

[2] = tested on: mutant Huntingdon exon 1-expressing PC12 and SH-SY5Y cells; settings: overexpression; cited from earlier work
[3] = tested on: AI90 (ΔgroEL::kan^R) [pBADEL] E. coli strain; experiment: Plating ability of AI90 on GroEL depletion at 37° C.; assay type: cell-based; parameters: key to Plating ability, 0.00 % L(+)arabinose: +++: growth identical to that in presence of 0.2% L(+)arabinose (100%), in terms of both number and size; ++: about 50% of the colonies relative to that in presence of 0.2% L(+)arabinose; +: about 30% of the colonies; +/−: ≦5% of the colonies and size reduced relative to that in presence of 0.2% L(+)arabinose; −: no visible colonies
Experimental: AI90 (ΔgroEL::kan^R) [pBAD-EL] cells were transformed with the pJC vector series. Transformants were selected at 37° C. on LB supplemented with 50 μg.ml^−1 of kanamycin, 120 μg.mL^−1 of ampicillin, 25 μg.mL^−1 of chloramphenicol and 0.2% L(+)arabinose. Depletion of GroEL protein was analysed at 37° C. by plating the same quantity of AI90 [PBAD-EL+pJC vectors] cells on LB plates containing 1% D(+)glucose or various amount of arabinose.
Each experiment was performed in triplicate. Plasmids carrying no groE genes or encoding the GroE proteins were used as negative or positive controls, respectively.

bacteriophage T4 = experiment: Growth of bacteriophage T4 in transformed groEL strains; assay type: cell-based, bacteriophage T4 (T4D0) in E. coli; parameters: key to Growth of bacteriophage T4, SV1 (groEL^+) / Growth of bacteriophage T4, SV2 groEL44 / Growth of bacteriophage T4, SV3 GroEL59 / Growth of bacteriophage T4, SV6 groEL673: +++: normal plaque-forming ability relative to wild-type groEL^+ strain, in terms of both number and size; ++: 5-fold fewer plaques relative to wild-type groEL^+ strain, or both; 10-fold fewer plaques, or plaque size reduced relative to wild-type groEL^+ strain, or both; +/−: 10^2-fold fewer plaques and plaque size reduced relative to wild-type groEL^+ strain; no visible plaques (<10^−4); settings: for Growth of bacteriophage T4, SV1 (groEL^+) / Growth of bacteriophage T4, SV2 groEL44 / Growth of bacteriophage T4, SV3 GroEL59 / Growth of bacteriophage T4, SV6 groEL673: 37° C.
Source text: as §3

GroES-EL: plasmid encoding the GroE proteins GroES and GroEL, positive control
Relative colony forming ability, SV2 groEL44 (E. coli SV2 groEL44): 1 | Relative colony forming ability, SV6 groEL673 (E. coli SV6 groEL673): 1 | Effect of over-expression on λ growth / plaque counts (bacteriophage λ): four-fold drop in plaques

yeast Hsp104: yeast chaperone Hsp104
cell death [1]: reduced | inclusion formation [1]: reduced inclusion formation

B1: sht-GroEL(191-345): short histidine tail minichaperone, GroEL residues 191-345 (protein, UniProt P0A6F5 191-345, looked up, fragment)
chain: EGMQFDRGYLSPYFINKPETGAVELESPFILLADKKISNIREMLPVLEAVAKAGKPLLIIAEDVEGEALATLVVNTMRGIVKVAAVKAPGFGDRRKAMLQDIATLTGGTVISEEIGMELEKATLEDLGQAKRVVINKDTTTIIDGVGEEAAIQGR
modifications: short His tag
Relative colony forming ability, SV2 groEL44 (E. coli SV2 groEL44): 0.01-0.02 | Complementation of the groEL673 defect in SV6 (E. coli SV6 groEL673): complemented | Relative colony forming ability, SV6 groEL673 (E. coli SV6 groEL673): 0.07-0.09

B2: GroEL(191-345): GroEL(191-345) minichaperone monomer (protein, UniProt P0A6F5 191-345, looked up, fragment)
chain: EGMQFDRGYLSPYFINKPETGAVELESPFILLADKKISNIREMLPVLEAVAKAGKPLLIIAEDVEGEALATLVVNTMRGIVKVAAVKAPGFGDRRKAMLQDIATLTGGTVISEEIGMELEKATLEDLGQAKRVVINKDTTTIIDGVGEEAAIQGR
modifications: apical domain
notes: GroEL(191-345) minichaperone monomer
cell death [2]: reduced cell death | proportion of cells with inclusions / inclusion formation [2]: reduced slightly but significantly

B3: sht-GroEL(191-376): histidine-tagged (short histidine tail; sht) minichaperone GroEL(191-376) (protein, UniProt P0A6F5 191-376, looked up, fragment)
chain: EGMQFDRGYLSPYFINKPETGAVELESPFILLADKKISNIREMLPVLEAVAKAGKPLLIIAEDVEGEALATLVVNTMRGIVKVAAVKAPGFGDRRKAMLQDIATLTGGTVISEEIGMELEKATLEDLGQAKRVVINKDTTTIIDGVGEEAAIQGRVAQIRQQIEEATSDYDREKLQERVAKLAGGV
modifications: short His tag
Plating ability, 0.00 % L(+)arabinose ([3]; 0.00% arabinose): − | Plating ability, 0.01 % L(+)arabinose ([3]; 0.01% arabinose): +/− (≦5% of the colonies and size reduced relative to that in presence of 0.2% L(+)arabinose) | Plating ability, 0.10 % L(+)arabinose ([3]; 0.10% arabinose): + (about 30% of the colonies) | Plating ability, 0.15 % L(+)arabinose ([3]; 0.15% arabinose): ++ (about 50% of the colonies relative to that in presence of 0.2% L(+)arabinose) | Relative colony forming ability, SV2 groEL44 (E. coli SV2 groEL44): <10^−4 | Growth of bacteriophage T4, SV1 (groEL^+) (bacteriophage T4): +++ | Growth of bacteriophage T4, SV2 groEL44 (bacteriophage T4): − (no visible plaques (<10^−4)) | Growth of bacteriophage T4, SV3 GroEL59 (bacteriophage T4): +++ | Growth of bacteriophage T4, SV6 groEL673 (bacteriophage T4): − (no visible plaques (<10^−4)) | Relative colony forming ability, SV6 groEL673 (E. coli SV6 groEL673): <10^−4 | Growth of bacteriophage λ, SV1 (groEL^+) (bacteriophage λ): +++ | Growth of bacteriophage λ, SV2 groEL44 (bacteriophage λ): − (no visible plaques (<10^−4)) | Growth of bacteriophage λ, SV3 GroEL59 (bacteriophage λ): − (no visible plaques (<10^−4)) | Growth of bacteriophage λ, SV6 groEL673 (bacteriophage λ): − (no visible plaques (<10^−4))

B4: GroES(1-97): co-chaperone of GroEL, seven membered ring of 10 kD subunits (protein, UniProt P0A6F9 1-97, looked up)
Co-chaperonin GroES: MNIRPLHDRVIVKRKEVETKSAGGIVLTGSAAAKSTRGEVLAVGNGRILENGEVKPLDVKVGDIVIFNDGYGVKSEKIDNEEVLIMSESDILAIVEA
Relative colony forming ability, SV2 groEL44 (E. coli SV2 groEL44): 5 × 10^−3 | Growth of bacteriophage T4, SV1 (groEL^+) (bacteriophage T4): +++ | Growth of bacteriophage T4, SV2 groEL44 (bacteriophage T4): +++ | Growth of bacteriophage T4, SV3 GroEL59 (bacteriophage T4): +++ | Growth of bacteriophage T4, SV6 groEL673 (bacteriophage T4): − (no visible plaques (<10^−4)) | Effect of over-expression on bacteriophage T4 growth in groEL strains (bacteriophage T4; groEL strains): allele-specific complementation | Relative colony forming ability, SV6 groEL673 (E. coli SV6 groEL673): <10^−4 | Complementation of groEL mutant strains for bacteriophage λ growth (bacteriophage λ): allele-specific complementation | Growth of bacteriophage λ, SV1 (groEL^+) (bacteriophage λ): +++ | Growth of bacteriophage λ, SV2 groEL44 (bacteriophage λ): +++ | Growth of bacteriophage λ, SV3 GroEL59 (bacteriophage λ): − (no visible plaques (<10^−4)) | Growth of bacteriophage λ, SV6 groEL673 (bacteriophage λ): − (no visible plaques (<10^−4)) | Effect of over-expression on λ growth / plaque counts (bacteriophage λ): no effect

B5: sht-GroEL(193-335): short histidine tail minichaperone, GroEL residues 193-335 (protein, UniProt P0A6F5 193-335, looked up, fragment)
chain: MQFDRGYLSPYFINKPETGAVELESPFILLADKKISNIREMLPVLEAVAKAGKPLLIIAEDVEGEALATLVVNTMRGIVKVAAVKAPGFGDRRKAMLQDIATLTGGTVISEEIGMELEKATLEDLGQAKRVVINKDTTTIIDG
modifications: short His tag
Complementation of the groEL44 defect in SV2 (E. coli SV2 groEL44): complements the defect in SV2 | Relative colony forming ability, SV2 groEL44 (E. coli SV2 groEL44): 0.05-0.09 | Complementation of the groEL673 defect in SV6 (E. coli SV6 groEL673): less well | Relative colony forming ability, SV6 groEL673 (E. coli SV6 groEL673): 0.03-0.05
